Reference: the DeepSol protein solubility set

Test: soluble on expression in E. coli; label from the status in PepcDB or PDB records

Soluble on expression in E. coli, soluble:
MSVVSNHHSNGNGNSTVYDTNGNDEIKKEVKDEPMASDSEVPFGELMKRDKKEKKQKKRKAESGSDEDDYKPEKRKSSAKNGKKKDVGSDSEDDYKPEKKKSKKNNKKKAQESSEDDDEESEGDVSEEDVKPQIHSDDELEEEDEAPTTDDEEEQKRKEKERRKKEKREKKERKEKKRLEKENRKIKEEDDEDSDDEDDEKAKKKKRKSKGAEKSKPSTSKKDAGGKKEPPKKKVKKEEDIEDIWEWWKEEKKPAGVKWNSLQHCGPLFAPPYIPLPSHVHFKYGGEKMKLTLETEEIAQFYAGVLDHEYSTKEAFNKNFMKDWRKVMTVEERERIHDLKKCDFRAIDAYQKEQREIRKAMTKEEKLKIKEEKEAEVKIYGIAIIDGHRQKVANFRIEPPGVFRGRGGHPKMGLIKKRIMPEDVIINCGKDTEIPKPPPGHKWKEVRHDNTVTWLCSWTESVLGQNKYIMLNPSSKIKGEKDFEKYETARRLKKKIGGIRERYTDDFKSKEMRVRQRATALYFIDKLALRAGNEKDVDEAADTVGCCSLRVEHIKLFDSAKLNEDDKKEKEFVVEFDFLGKDSIRYFNRVSVEKRVYKNLKIFMEGKAPSDDLFDRLDTATLNDHLRSLMDGLTVKVFRTYNASITLQEQLIKLTNPKDNVAAKILSYNRANRQVAILCNHQRAVSKGFDESMQKLEQKIKDKKKEVKEAEAALKSARGAEKEKAQKKYDRLKEQLKKLKISRTDKDENKQIALGTSKLNYIDPRITVAWCKKFEVPLEKVFTKTHREKFRWAIDMTNSSDEEYVF
MAQSFLLMGALIQHHLKGEKADLLTPEKLLEAANKQGTVPSRVRYQWMEDEETGRLKAVGYHTSMESGRDQVRVRLLKHDFPNNRYEFWEEGATGPTILWTPDNPGIELPTDTAHGEQPVIPSAIPGLEIPEMDDVSILATPMPDEKDFRDYILVFPENAFPPIYVYLSKKIDTPIWLEHHHHHH
MASMTGGQQMGRGSMAGVLPAHGTQHGIRLPLRSGLGGAPLGLRLPRETDEEPEEPGKKGSFVEMVDNLRGKSGQGYYVEMTVGSPPQTLNILVDTGSSNFAVGAAPHPFLHRYYQRQLSSTYRDLRKGVYVPYTQGKWEGELGTDLVSIPHGPNVTVRANIAAITESDKFFINGSNWEGILGLAYAEIARPDDSLEPFFDSLVKQTHVPNLFSLQLCGAGFPLNQSEVLASVGGSMIIGGIDHSLYTGSLWYTPIRREWYYEVIIVRVEINGQDLKMDCKEYNYDKSIVDSGTTNLRLPKKVFEAAVKSIKAASSTEKFPDGFWLGEQLVCWQAGTTPWNIFPVISLYLMGEVTNQSFRITILPQQYLRPVEDVATSQDDCYKFAISQSSTGTVMGAVIMEGFYVVFDRARKRIGFAVSACHVHDEFRTAAVEGPFVTLDMEDCGYNIPQTDES
VDSVYRTRSLGVAAEGIPDQYADGEAARVWQLYIGDTRSRTAEYKAWLLGLLRQHGCHRVLDVACGTGVDSIMLVEEGFSVTSVDASDKMLKYALKERWNRRKEPAFDKWVIEEANWLTLDKDVPAGDGFDAVICLGNSFAHLPDSKGDQSEHRLALKNIASMVRPGGLLVIDHRNYDYILSTGCAPPGKNIYYKSDLTKDITTSVLTVNNKAHMVTLDYTVQVPGAGRDGAPGFSKFRLSYYPHCLASFTELVQEAFGGRCQHSVLGDFKPYRPGQAYVPCYFIHVLKKTG

Soluble on expression in E. coli, not soluble:
MGSDKIHHHHHHMSDVMNNSQIATQDNNLINELKTLIASAKQQAQVQVNAQMTLLYWQLGHRLQEHLLSNQRADYAKQIVKQVAQQLTYEYGKGFNEKSLRKMMQFYQAFPQQEIVSTLSRQLSWSHFVELLPIKAPVAREFYLQMAINDRWSVRTLRNRIDSMLFERTAVSKKPDELIKLELAQLENKQLSANMILKDPYMLDFLGVQDHYFEKDLEDAILRDLQQFLLELGSGFSFIGRQHRVQIGYYDFYIDLLFYNRKLKRLVAIDLKLGNFKAAYKGQMELYLRYLAKYEQEADERPPLGIILCASKDQEQVELLELDKSGIHVAEYLTALPPKEVLQQKLHQAISQNQQRFLAVNALDKDAGIASDAEEK
MVLPLSLLKTAQNHPMLVELKNGETYNGHLKACDSWMNIHLVDVIFTSKDGDKFFKMSEAYVRGSTIKYLRIPETVVDLVKTEVNEVRRQQQREQSRGRGGGRGGRGGHRGGGGNRGGRGGAR
MGSDKIHHHHHHMKAIGYQTAGAITAPNALENITLAEPTATGFDLLVEIKAISVNPVDTKIRASSSAPTGEYKIIGWDAVGVVKAVGEKVSLFNVGDEVWYAGDISRSGSYAEYQLVDERIVGHKPKSLTYTQAAALPLTGITAWEILFDRLALPQDGSATDARILIIGAAGGVGSIITQLAVKLTGAEVIGTASRPESAAWVHKLGANAVINHTKPLSKELANIGITDVTHVISLTQTDQHFDEIVQVLKPQGKLALIDDPKGPLDVMKLKRKSLSLHWELMFTRSLYQTEDMIAQHHLLNRLSALIDTGELQSTFGEHYGTINAQNLIKAHAQIESGKAIGKIVLEGFNQ
MYSPQTFFLQEVKGQKPDGLGGLIDDWGLFKEVSGYIDLVTGTDETTKQNAFVEESTHILIIPEFIEGITDNMRVVDQTNRYYDITYSDNPVGIKHHNEIYLKFEGVLSGEE
MGSDKIHHHHHHMFKPMASVFTNHQIAGHYRAIERAQKCVVPFHFEIQGQEYPKPKPERNWLRRLSGTSSEKYAMVELTPTKVVLWSPEGRNLGEMPLSAVRRIQIGAIRCHVTEGLDPRHAFRATIFVLTDSGNYYFANSDMEVLPAICKFAHEHQVPVEDPLRLIPLLKVGWRVAAVTLHETYAQLVAHTGYPADKV
MGSDKIHHHHHHMKLHQGERVSFVKTIPSLQETEFSRLEERLCFAKHAHPTYSIGIMPLGLSLCQGEGETYFMGRHKVCVYHPGEEHTCVFEHTGGSWAYWNCYPKEEMLREYASEILGERGEPHFAKTVVEDPYAYRLFWELFDLVGKERELLALQEASLKAFSYLIAHHASPWHPSSRFLLMERAKITQAKERILEGDEVEKITLEELASLCGMSRFRFLRLFAKLEGMTPHRFLLMHKTQKAKRYLQEGCDISEAALLSGFCDQAHLSRTLRRFYGYTPRSLRS
MGSDKIHHHHHHMTPRANALPTDAGELYYSYARPADGALPSLSRQKGLLGIITFQTGFVGEGDGAKPEGILQIPLSGRGDDLCELWKTTQPVLAGTFGDITYRCSRDFLFGSIALAVADLPAGNHGLIHPPLQNAAELAYQQIFSLLDRHGYPGLLRIWNFVPDINGVSHGLEHYRQFNIGRQDAFLAHNRLPSRQNIPAASALGSVDGPLVVYFLAARRNSVAVENPRQISAYHYPQEYGPSSPTFSRAGWVDLGQQKILFISGTASIIGHQTRHGGNVAAQARESMANIAAVVAETNRVAAGSPYDLNDLSYKVYLRQFTDLPIVRAELDRLVTPKAPIFYLQADICRADLLVEIEATAGVLHGGMA
